Publication doi:10.1101/2022.09.14.507982

Biological target: F-actin (filamentous actin from rabbit muscle) (rabbit) (UniProt P68135)
Experiment: co-sedimentation

Substance: Ig3 domain of palladin (domain or fragment)
- Kd: 3.42 µM
